Laboratory results taken from patent publication US20240285790A1 (HENRY M JACKSON FOUNDATION FOR THE ADVANCEMENT OF MILITARY …, published 2024).

Molecular target: HIV-1 JRFL Env (full length), on infected primary CD4+ T cells and on virions (HIV-1 JRFL, UniProt P20871 32-503; P20871 504-848)
Assay: cell-based or functional assay

B1: X5 antibody (antibody, V domains shown)
VH: VQLLEQSGAEVKKPGSSVQVSCKASGGTFSMYGFNWVRQAPGHGLEWMGGIIPIFGTSNYAQKFRGRVTFTADQATSTAYMELTNLRSDDTAVYYCARDFGPDWEDGDSYDGSGRGFFDFWGQGTLVTVSS
VL: ELVLTQSPGTLSLSAGERATLSCRASQSVSSGSLAWYQQKPGQAPRLLIYGASTRATGIPDRFSGSGSGTDFTLTIGRLEPEDLAVYYCQQYGTSPYTFGQGTKLEIKR
  Neutralization IC50 against JRFL (X5 + sCD4 mix): 3.23 µg/mL
  Neutralization IC50 against JRFL (X5 antibody alone): > 10 µg/mL

B2: N5-i5 antibody (antibody, V domains shown)
VH: EVQLVESGGGLVQPGGSLRLSCAASGFTFSTYAMSWVRQAPGKGLEWVSSINNSGRNTFSADSVKGRFTISRDNSKNTLFLVMNSLRAEDTAVYYCAKDLRLGGGSDYWGQGTLVTVSS
VL: QSALTQPASVSGSPGQSITISCTGTSSDVGSYNFVSWYQQHPGKAPKLMIYEVSERPSGISNRFSGSKSGNTASLTISGLQAEDEADYYCSSYAGSTTFRVFGGGTKLTVRG
  Neutralization IC50 against JRFL (N5-i5 + sCD4 mix): > 10 µg/mL
  Neutralization IC50 against JRFL (N5-i5 antibody alone): > 10 µg/mL

B3: A32 antibody (antibody, V domains shown)
VH: QVQLQESGPGLVKPSQTLSLSCTVSGGSSSSGAHYWSWIRQYPGKGLEWIGYIHYSGNTYYNPSLKSRITISQHTSENQFSLKLNSVTVADTAVYYCARGTRLRTLRNAFDIWGQGTMVTVSS
VL: VLTQPPSASGSPGQSVTISCTGTSSDVGGYNYVSWYQHHPGKAPKLIISEVNNRPSGVPDRFSGSKSGNTASLTVSGLQAEDEAEYYCSSYTDIHNFVFGGGTKLTVLG
  Neutralization IC50 against JRFL (A32 + sCD4 mix): > 10 µg/mL
  Neutralization IC50 against JRFL (A32 antibody alone): > 10 µg/mL
